Measurements from patent US20250145697A1 (WASHINGTON UNIVERSITY, published 2025).

Assays:
[1] = target: T1, recombinant alipidated human ApoE3 (human, UniProt P02649 19-317); assay: direct ELISA on coated recombinant alipidated ApoE (0.5 ug/ml)
T1 construct: mature; full length recombinant protein made in E. coli or bought
Protocol: (§1) ELISA dose response curves were generated for several anti-ApoE antibodies. Briefly, plates were coated overnight with full length recombinant alipidated ApoE2, ApoE3, or ApoE4 (0.5 μg/ml). The following days, plates were washed, blocked and then incubated with an anti-ApoE antibody. A goat, anti-mouse IgG-HRP antibody was used for secondary detection. Recombinant alipidated ApoE was either expressed solubly in E. coli and then purified, or purchased from a commercial supplier.

[2] = target: T2, recombinant alipidated human ApoE4 (human, UniProt P02649 19-317); assay: as above
T2 construct: mature; full length recombinant protein made in E. coli or bought; biotinylated for SPR; position 112 is counted on the mature protein, not on the precursor entry; also called recApoE; non-lipidated ApoE4
T2 sequence (P02649 19-317 C130R): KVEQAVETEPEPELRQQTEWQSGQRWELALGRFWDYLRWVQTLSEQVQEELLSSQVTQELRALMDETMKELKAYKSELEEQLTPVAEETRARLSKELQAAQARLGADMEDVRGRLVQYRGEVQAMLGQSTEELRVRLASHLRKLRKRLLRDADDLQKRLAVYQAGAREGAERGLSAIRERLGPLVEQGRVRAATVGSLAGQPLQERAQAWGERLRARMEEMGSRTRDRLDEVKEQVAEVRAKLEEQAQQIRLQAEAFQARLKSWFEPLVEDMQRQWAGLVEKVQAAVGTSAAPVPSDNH
Protocol: as §1

[3] = target: T3, recombinant alipidated human ApoE2 (human, UniProt P02649 19-317); assay: as above
T3 construct: mature; full length recombinant protein made in E. coli or bought
T3 sequence (P02649 19-317 R176C): as the sequence (P02649 19-317 C130R) above, with R112C, R158C counted along it
Protocol: as §1

[4] = target: T2, recombinant alipidated human ApoE4; assay: SPR, biotinylated recombinant apoE4 captured on a streptavidin chip; column Ka (1/Ms)
Protocol: (§2) ELISA plates were coated with 0.5 μg/ml of recombinant apoE2 (square), apoE3 (open circle), or apoE4 (closed circle). Then different concentrations of (A) HJ151, (B) HJ153, (C) HJ154, or (D) HJ156 were loaded on the plates. Horse-radish peroxidase labeled goat anti-mouse secondary antibodies were used to detect binding. […] HJ151 is specific for ApoE4 and HJ156 binds only ApoE3 and ApoE4. FIG. 5E-H are graphs depicting surface plasmon resonance profiles for various antibodies. Anti-ApoE antibodies were serially diluted 3-fold (starting at 100 nM for HJ153 (E), and 1000 nM for HJ151 (F), and […] (G)) for detection of binding to biotinylated-recombinant apoE4 captured on a streptavidin chip. Samples were injected at a flow rate of 30 μl/minute. (H) Apparent KD values of HJ151, HJ153 and HJ156 were calculated based on the SPR experiment.
(§3) ELISA plates were coated with 0.5 μg/ml of recombinant apoE2, apoE3, or apoE4. Then different concentrations of HJ151 (FIG. 5A), HJ153 (FIG. 5B), HJ154 (FIG. 5C), or HJ156 (FIG. 5D) were loaded on the plates. Horse-radish peroxidase labeled goat anti-mouse secondary antibodies were used to detect binding. […] HJ151 is specific for ApoE4 and HJ156 binds only ApoE3 and ApoE4. Surface plasmon resonance profiles for various antibodies was also performed.

[5] = target: T2, recombinant alipidated human ApoE4; assay: ELISA: untreated recombinant ApoE4 on the plate, antibody titrated, OD650
Protocol: (§4) 1: untreated ApoE4. 2: ApoE4 that has been incubated at 40° C. for 24 hr. Supernatant(S) and pellet (P) from ultracentrifugation were resolved on SDS-PAGE and stained by Coomassie blue. (D) Binding of HJ156 to different preparations of ApoE4 loaded at the same concentration on the ELISA plate. Sup of untreated: Supernatant fraction of untreated ApoE4 from ultracentrifugation. Sup/Pel of 24h 40C: Supernatant/pellet fraction of ApoE4 incubated at 40° C. for 24 hour. (E) Binding of HJ156 to untreated and 40° C. incubated ApoE4 with and without denaturation by 1% SDS or 4M guanidine HCl.
(§5) In order to test whether HJ151 and HJ156 bind to some form of ApoE in the brain, unfixed frozen brain sections from APPPS1/APOE4 or APPPS1/EKO mice using HJ151 and HJ156 (FIG. 38A). The presence of Aβ plaques was confirmed with Aβ immunostaining using anti-Aβ antibody HJ3.4 on the sections from the same brain. […] Next, the ability of HJ156 to bind to an aggregated form of ApoE induced by incubation at 40° C. was queried. The binding of untreated ApoE to HJ151, HJ153 or HJ156 was compared to the binding of ApoE incubated at 40° C. to HJ151, HJ153 or HJ156. HJ153 bound to untreated ApoE or ApoE incubated at 40° C. similarly while HJ151 and HJ156 preferentially bound to ApoE incubated at 40° C. (FIG. 38B). […] Solubilization of the ApoE aggregates reduced their binding to HJ156. […]

[6] = target: T2, recombinant alipidated human ApoE4; assay: SPR (Biacore T200), biotinylated ApoE4 captured on anti-biotin mAb chip, antibody injected, 1:1 fit
Protocol: The affinity of several anti-ApoE antibodies for ApoE4 was determined by surface plasmon resonance using a BIAcore T200. Anti-biotin monoclonal mouse antibody was immobilized on a Biacore Series S CM5 sensor chip. Biotinylated recombinant alipidated ApoE4 was then captured on to the chip. Serial dilutions of each antibody were injected at a flow rate of 30 μl/min. Each sample was analyzed, for example, with 3-minute association and 10-minute dissociation. After each injection the chip was regenerated using 3 M MgCl₂ or another appropriate buffer. Binding response was corrected by subtracting the response units (RUs) from a flow cell capturing an irrelevant IgG at similar density. A 1:1 Languir model of simultaneous fitting of Kₒₙ and Koff was used for kinetics analysis. Recombinant alipidated ApoE4 was either expressed in soluble form in E. coli and then purified, or purchased from a commercial supplier.

[7] = target: T2, recombinant alipidated human ApoE4; assay: SPR, biotinylated recombinant apoE4 captured on a streptavidin chip; column Apparent KD (M)
Protocol: as §2, §3

murine ApoE = target: T4, murine ApoE (mouse, UniProt P08226 19-311); assay: Western blot of mouse brain lysates
T4 sequence (looked up): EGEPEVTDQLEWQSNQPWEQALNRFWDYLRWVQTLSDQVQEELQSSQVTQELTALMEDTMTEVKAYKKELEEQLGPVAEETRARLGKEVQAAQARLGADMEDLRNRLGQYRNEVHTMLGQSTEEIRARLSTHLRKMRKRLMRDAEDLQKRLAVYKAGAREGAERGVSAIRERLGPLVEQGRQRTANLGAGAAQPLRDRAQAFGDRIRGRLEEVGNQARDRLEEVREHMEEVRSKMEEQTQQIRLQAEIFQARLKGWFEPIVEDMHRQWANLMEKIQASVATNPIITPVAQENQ
From the text: Brain lysates from apoE KO mice or mice expressing human apoE3, human apoE4 or murine apoE were immunoblotted with HJ151, HJ152, HJ153, and HJ154. A commercial apoE antibody GA-50 was used as a positive control.

[8] = target: T5, heat-induced aggregates of ApoE4 (human, UniProt P02649 19-317); assay: ELISA: ApoE4 incubated at 40 C for 24 hr on the plate, antibody titrated, OD650
T5 construct: mature; aggregated state of the recombinant protein; also called ApoE4 incubated at 40 C for 24 hr; heat-treated ApoE4
T5 sequence (P02649 19-317 C130R): as the sequence (P02649 19-317 C130R) above
Protocol: as §4, §5

[9] = target: T2, recombinant alipidated human ApoE4; assay: SPR, biotinylated recombinant apoE4 captured on a streptavidin chip; column Kd (1/s)
Protocol: as §2, §3

T1 sequence (P02649 19-317): as the sequence (P02649 19-317 C130R) above, with R112C counted along it

B1: HJ153 (antibody, V domains shown)
VH: QVQLQQPGAELVKPGASVKLSCKASGYTFTSYWMHWVKQRPGRGLEWIGEIDPSDGFTYNNQNFKDKSTLTVDRSSGTAYLQLSSLTSEDSAVYYCAGSLGRIGLAYWGHGTLVTVSA
VL: QIVLTQSPAIMSASPGEKVTISCSASSSVTYMYWYQQKPGASPKSWIYRTSNLASGVPARFSGSGSGTSYSLTISSMEAEDAATYYCQQFQSYPLTFGAGTKLELKR
notes: murine monoclonal antibody from hybridoma; also called HJ153B (biotinylated)
[1]
  EC50: 0.02 nM
[2]
  EC50: 0.03 nM
[3]
  EC50: 0.02 nM
[4]
  kon: 662000 M⁻¹ s⁻¹
[5]
  EC50 (read off the curve): ~0.3 nM
[6]
  Kd: 0.43 nM
  koff: 0.000346 s⁻¹
  kon: 804000 M⁻¹ s⁻¹
[7]
  Kd: 0.319 nM
Murine ApoE
  binding result: no binding
[8]
  EC50 (read off the curve): ~0.2 nM
[9]
  koff: 0.000211 s⁻¹
